Experimental findings from patent publication US20160289283A1 are described below.

Holding throughout (test): cell-based or functional assay
In assay [1] the target is human Y4 receptor (human) (UniProt P50391).
The target of assay [2] is human Y1 receptor (human) (UniProt P25929).
Assay [3] addresses human Y2 receptor (human) (UniProt P49146).

Sequence of human Y1 receptor (human) (P25929 whole entry): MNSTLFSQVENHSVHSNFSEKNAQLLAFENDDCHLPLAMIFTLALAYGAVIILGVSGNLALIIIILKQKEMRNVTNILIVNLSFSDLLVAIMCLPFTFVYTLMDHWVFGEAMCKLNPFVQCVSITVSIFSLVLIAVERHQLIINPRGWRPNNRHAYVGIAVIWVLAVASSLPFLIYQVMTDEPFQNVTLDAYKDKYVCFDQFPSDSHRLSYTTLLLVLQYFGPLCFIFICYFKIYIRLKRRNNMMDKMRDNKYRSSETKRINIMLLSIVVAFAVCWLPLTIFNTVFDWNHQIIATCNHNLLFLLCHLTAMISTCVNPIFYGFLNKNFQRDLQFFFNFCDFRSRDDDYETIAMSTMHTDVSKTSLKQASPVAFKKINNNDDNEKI
Sequence of human Y4 receptor (human) (P50391 whole entry): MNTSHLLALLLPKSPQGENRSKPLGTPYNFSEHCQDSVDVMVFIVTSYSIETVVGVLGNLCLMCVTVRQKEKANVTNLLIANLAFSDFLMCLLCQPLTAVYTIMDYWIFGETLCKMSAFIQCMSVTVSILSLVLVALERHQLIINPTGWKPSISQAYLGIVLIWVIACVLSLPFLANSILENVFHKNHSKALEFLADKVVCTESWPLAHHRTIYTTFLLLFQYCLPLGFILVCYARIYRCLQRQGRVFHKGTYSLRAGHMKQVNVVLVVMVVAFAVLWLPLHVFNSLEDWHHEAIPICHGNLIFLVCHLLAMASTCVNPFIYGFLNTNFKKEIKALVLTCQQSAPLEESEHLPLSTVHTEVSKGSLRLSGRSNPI
Sequence of human Y2 receptor (human) (P49146 whole entry): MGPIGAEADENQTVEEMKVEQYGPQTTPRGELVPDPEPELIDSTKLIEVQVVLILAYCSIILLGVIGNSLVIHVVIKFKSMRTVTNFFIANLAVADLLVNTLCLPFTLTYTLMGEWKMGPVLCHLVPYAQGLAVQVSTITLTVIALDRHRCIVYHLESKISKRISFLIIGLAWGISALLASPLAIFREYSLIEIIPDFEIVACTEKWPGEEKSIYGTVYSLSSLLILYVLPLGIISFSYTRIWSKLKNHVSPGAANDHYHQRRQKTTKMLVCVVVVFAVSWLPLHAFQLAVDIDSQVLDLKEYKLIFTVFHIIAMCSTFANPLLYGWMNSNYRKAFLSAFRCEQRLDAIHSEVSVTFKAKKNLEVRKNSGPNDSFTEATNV

“4-N{alpha}-(3-Methylbutanoyl)-7-N{Epsilon}-[2-[2-[2-[[2-[2-[2-[[(4S)-4-carboxy-4-[[(4S)-4-carboxy-4-(16-sulfohexadecanoylamino)butanoyl]amino]butanoyl]amino]-ethoxy]ethoxy]acetyl]amino]ethoxy]ethoxy]acetyl]-[Lys7,Gln18,Trp30,NMeArg35]hPYY(4-36) (peptide)” gave an EC50, Actone functional potency assay in assay [1] of over 1000 nM.

As for “4-N{alpha}-(hexanoyl)-7-N{Epsilon}-2-[2-[2-[[2-[2-[2-[[(4S)-4-carboxy-4-(16-sulfohexadecanoylamino)butanoyl]amino]ethoxy]ethoxy]acetyl]amino]ethoxy]-ethoxy]acetyl]-[Arg4,Lys7,Gln18,Trp30,NMeArg35]hPYY(4-36) (peptide)”, in assay [2], the EC50, Actone functional potency assay is over 1000 nM.

“7-N{Epsilon}-[2-[2-[2-[[2-[2-[2-[[2-[2-[2-[[2-[2-[2-[4-[16-(1H-tetrazol-5- yl)-hexadecanoylsulfamoyl]butanoylamino]ethoxy]ethoxy]acetyl]amino]ethoxy]-ethoxy]acetyl]amino]ethoxy]ethoxy]acetyl]amino]ethoxy]ethoxy]acetyl]-[Lys7,Gln18,Trp30,NMeArg35]hPYY(3-36) (peptide)”: the EC50, Actone functional potency assay in assay [2] was over 1000 nM.

Turning to “7-N{Epsilon}-[2-[2-[2-[[2-[2-[2-[[(4S)-4-carboxy-4-(16-sulfohexadecanoylamino)-butanoyl]amino]ethoxy]ethoxy]acetyl]amino]ethoxy]ethoxy]acetyl]-[Arg4,Lys7,Gln18,Trp30]hPYY(3-36) (peptide)”, the EC50, Actone functional potency assay was 1 nM in assay [3], over 1000 nM in assay [1] and over 1000 nM in assay [2].

As to “7-N{Epsilon}-[2-[2-[2-[[2-[2-[2-[[(4S)-4-carboxy-4-(16-sulfohexadecanoylamino)-butanoyl]amino]ethoxy]ethoxy]acetyl]amino]ethoxy]ethoxy]acetyl]-[Lys7,Gln18,Trp30,NMeArg35]hPYY(3-36) (peptide)”, the EC50, Actone functional potency assay in assay [2] was over 1000 nM.
